Results on eight molecules are retold here after publication PMC7916480, “Functional and Structural Characterization of Nucleic Acid Ligands That Bind to Activated Coagulation Factor XIII”.

B1: FA2 (ssDNA)
DNA: AAGCAGTGGTAAGTAGGTTGAGCTTTCATCACCCGTCGGTTAGACTAAGTCTCCAGCATCCTCTCTTCGAGCAATCCACAC
B2: FA8 (ssDNA)
DNA: AAGCAGTGGTAAGTAGGTTGATCATCATGTTATTTTTGTTCCATCACGCCAGTTCTGGTTCTCTCTTCGAGCAATCCACAC
B3: FA3 (ssDNA)
DNA: AAGCAGTGGTAAGTAGGTTGACCATCGTAGTTCGTACACCAGTCCATTCTAGGACTCACAATCTCTTCGAGCAATCCACAC
B4: FA1 (ssDNA)
DNA: AAGCAGTGGTAAGTAGGTTGACCATCCGCCGATTAGGCAATCACGTGGCTTAGGCACCGTATCTCTTCGAGCAATCCACAC
B5: FA6 (ssDNA)
DNA: AAGCAGTGGTAAGTAGGTTGACGCTGCGGGCATCACGTAAGTTAATATATCACTCGGCTATTCTCTTCGAGCAATCCACAC
B6: FA12 (ssDNA)
DNA: AAGCAGTGGTAAGTAGGTTGATCATCCTCTTTAAGTCATCACTTTAGTTTCTCCATCTACATCTCTTCGAGCAATCCACAC

For one data set, the target named is activated coagulation factor XIII (FXIIIa), recombinant human (human) (UniProt P00488).
Test: not given
Settings: not given
On to Tridegin (peptide), for which the inhibition of FXIIIa isopeptidase activity (fluorogenic peptide substrate, 12.8 nM FXIIIa) by tridegin, up to 12 µM stood at 50%.

The next data set addresses T1, FXIIIa (activated coagulation factor XIII) (human, UniProt P00488 39-732).
T1 sequence: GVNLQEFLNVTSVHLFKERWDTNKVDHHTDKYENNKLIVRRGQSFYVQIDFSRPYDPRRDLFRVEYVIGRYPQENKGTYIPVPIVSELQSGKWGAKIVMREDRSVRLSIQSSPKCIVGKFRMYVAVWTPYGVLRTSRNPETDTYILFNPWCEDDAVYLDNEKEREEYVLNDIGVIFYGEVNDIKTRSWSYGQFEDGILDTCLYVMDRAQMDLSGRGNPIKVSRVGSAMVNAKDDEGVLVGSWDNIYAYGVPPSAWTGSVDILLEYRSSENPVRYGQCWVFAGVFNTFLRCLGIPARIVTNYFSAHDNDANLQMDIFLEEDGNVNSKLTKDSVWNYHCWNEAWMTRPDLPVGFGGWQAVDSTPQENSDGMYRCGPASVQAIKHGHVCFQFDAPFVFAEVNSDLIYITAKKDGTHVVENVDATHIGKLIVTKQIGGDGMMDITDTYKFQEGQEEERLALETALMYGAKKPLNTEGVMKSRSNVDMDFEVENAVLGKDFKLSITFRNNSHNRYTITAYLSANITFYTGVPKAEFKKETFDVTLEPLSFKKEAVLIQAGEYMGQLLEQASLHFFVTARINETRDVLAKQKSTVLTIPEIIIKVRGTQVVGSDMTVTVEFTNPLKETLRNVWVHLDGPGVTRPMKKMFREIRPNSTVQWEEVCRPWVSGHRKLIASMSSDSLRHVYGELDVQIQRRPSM
The data set can be described thus: BLI; BLI (BLItz, SAX sensors, 3'-biotinylated aptamer 1 µM) in binding buffer, 2200 rpm; buffer composition, pH and temperature not in material; plate capture 30 min; fibrinogen competition 30 min at RT. The settings on record: protein: recombinant; chain copies: 2; label: 3'-biotin (BLI, capture, fibrinogen assay). (BLI is a label-free optical method that tracks binding on a fibre tip over time.)
B1: the Kd is 79.1 nM.
The same measure, in the same setting: the same measure for B2: 79.1 nM.
Same read-out and setting: the figure for B3 is 92.9 nM; for B4 it is 50.4 nM; for B5 it is 93.5 nM.
On the same count and under the same terms, the same measure for B6: 51.8 nM.

The target of another data set is T1, FXIIIa (activated coagulation factor …). Put plainly: competition; competition with immobilized fibrinogen, 25 nM FXIIIa; BLI (BLItz, SAX sensors, 3'-biotinylated aptamer 1 µM) in binding buffer, 2200 rpm; buffer composition, pH and temperature not in material; plate capture 30 min; fibrinogen competition 30 min at RT. The settings on record: protein: recombinant; chain copies: 2; label: 3'-biotin (BLI, capture, fibrinogen assay).
Take B1: the half-maximal inhibitory concentration (IC50) came to 39.3 nM.
The same measure, in the same setting: the figure for B2 is 136 nM.
The same measure, in the same setting: the figure for B3 is 66.2 nM; for B4 it is 89.5 nM.
Same read-out and setting: the figure for B5 is 57 nM; for B6 it is 38 nM.

The next data set shares this target. The data set can be described thus: competition; competition with immobilized fibrinogen; not affected; BLI (BLItz, SAX sensors, 3'-biotinylated aptamer 1 µM) in binding buffer, 2200 rpm; buffer composition, pH and temperature not in material; plate capture 30 min; fibrinogen competition 30 min at RT. Particulars: protein: recombinant; chain copies: 2; label: biotin (capture).
Take TACTGTCACGAGGATATAGCACATTAGTTCAGATACGATTGTTACTGTCA (ssDNA) [negative control oligonucleotide]: the binding result is recorded as “no binding”.

Another data set has the same target. Put plainly: pull-down (aptamer-coated plate, activity read-out); 30 nM FXIIIa; BLI (BLItz, SAX sensors, 3'-biotinylated aptamer 1 µM) in binding buffer, 2200 rpm; buffer composition, pH and temperature not in material; plate capture 30 min; fibrinogen competition 30 min at RT. Particulars: protein: recombinant; chain copies: 2; label: 3'-biotin (BLI, capture, fibrinogen assay).
Regarding B3, the binding signal was approximately 5 % captured.
The same measure, in the same setting: the same measure for B5: approximately 5 % captured.
Regarding B6, the binding signal is 10 % captured.

As usually defined, the Kd is the equilibrium constant for the complex coming apart. By IC50 is commonly meant the concentration that gives 50% inhibition.
